Measured values from article PMC4528141, “Generating a Metal-responsive Transcriptional Regulator to Test What Confers Metal Sensing in Cells*”.

Target: T1, FrmR (Salmonella enterica serovar Typhimurium …, UniProt A0A719I766 1-91)
T1 sequence: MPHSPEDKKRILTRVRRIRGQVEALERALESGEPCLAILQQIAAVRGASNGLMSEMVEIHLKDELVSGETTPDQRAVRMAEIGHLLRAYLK
Assay: fluorescence anisotropy; apo, 5 mM EDTA; 10 nM DNA; 2 tetramers:DNA, equal affinity; 10 mM HEPES pH 7.0, 60 mM NaCl, 240 mM KCl, 25 C, anaerobic; 5 mM EDTA (apo) or ZnCl2 (5 uM in text, 20 uM in Table 2)
Details: protein: recombinant; tags: none stated (pET29a NdeI; reverse primer carries native stop); chain copies: 8; label: 5' HEX on strand 1; blunt

B1: frmRAPro (dsDNA)
DNA 1: TTCTGATAGTATACCCCCCTATAGTATATGGAG
DNA 2: CTCCATATACTATAGGGGGGTATACTATCAGAA
Kd: 99.4 nM
